Assay results as given in the supplement of paper PMC10201428.
± gives the standard deviation of the averaged measurements.

B1: library; a variant is named by its letters at N, in order (parent)
chain: ACATTTGTTGATACAACCATAAAATGATAATTACACCCATAAATTGATAATTATCACACCCANNNNNNNNNNNNNNCTCTGATCATAGTCAGACCAACATTGCTACGACCCGTATTCGCACCGACAC

Key:
[1] = variants of: B1; test: relative integration efficiency (T-RL orientation) vs wild-type transposon end (log2 (normalized fold change)); transposon end mutated: right end (5 bp flank + 75 bp right end); higher = more efficient transposition; conditions: with VchCAST RNA-guided transposition machinery (E. coli BL21(DE3) host, lacZ target)
Experimental: (§1)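 Pooled, barcoded VchCAST (Tn6677) mini-transposon donor libraries; each variable transposon-end sequence sits in a fixed pDonor mini-transposon context (10-bp barcode and cargo not included). Left- or right-end libraries were co-transformed with pEffector (TniQ-Cascade, TnsABC, lacZ crRNA, T7, 0.1 mM IPTG) into E. coli BL21(DE3) and grown 18 h at 37 C. T-LR and T-RL junction amplicons were sequenced; output/input barcode fold change was normalised to the mean of four wild-type barcodes and log2-transformed. Two biological replicates; zero-count/undetected variants carry floor values (-10 / -15), censored here. Barcode uncoupling by PCR recombination adds noise.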

[2] = variants of: B1; test: relative integration efficiency (T-LR orientation) vs wild-type transposon end (log2 (normalized fold change)); transposon end mutated: right end (5 bp flank + 75 bp right end); higher = more efficient transposition; conditions: with VchCAST RNA-guided transposition machinery (E. coli BL21(DE3) host, lacZ target)
Experimental: as §1

Variant | relative integration efficiency (log2) [1] | relative integration efficiency (log2) [2]
TAAATTGATATTGC T20A | -0.299 ± 0.1 | -0.359 ± 0.083
TAAATTGATGTTGC | -0.0405 ± 0.033 | 0.475 ± 0.053
TAATTTGATATTGC | 0.169 ± 0.039 | 0.241 ± 0.14
TAAATTGATATTGC C61A | -0.241 ± 0.071 | 1.04 ± 0.15
TAAATTGATATTGC C61T | -0.0918 ± 0.017 | 0.755 ± 0.17
TAAATTGATATTGC C61G | 0.142 ± 0.018 | 0.81 ± 0.3
TAAATTGATATTGG | 0.00187 ± 0.0011 | -0.155 ± 0.042
TAAATTGATATTGT | 0.127 ± 0.093 | 0.155 ± 0.13
TAAGTTGATATTGC | -0.0544 ± 0.061 | 0.2 ± 0.074
TAAATTGATATTGC A41G | -0.104 ± 0.45 | -0.399 ± 1.1
TAAATTGATATTGC A41T | -0.0667 ± 0.018 | -0.148 ± 0.022
TAAATTGATATTGC A41C | -0.815 ± 0.047 | -0.78 ± 0.23
TAAATTGTAATTGC | -0.121 ± 0.11 | 1.88 ± 0.1
TAAATTGATATTGC A30T | -0.464 ± 0.16 | -0.0553 ± 0.55
TAAATTGATATTGC A30C | -0.623 ± 0.12 | -0.195 ± 0.17
TAAATTGATATTGC A30G | -0.795 ± 0.13 | -0.2 ± 0.08
TAAATTGATATTGC A39T | -0.236 ± 0.061 | -0.533 ± 0.43
TAAATTGATATTGC A39G | -0.0861 ± 0.07 | -0.449 ± 0.17
TAAATTGATATTGC A39C | -1.23 ± 0.021 | -1.05 ± 0.2
TAAATTGATATTGC T54C | -0.0952 ± 0.0069 | -0.015 ± 0.36
TAAATTGATATTGC T54G | 0.0616 ± 0.064 | 0.247 ± 0.082
TAAATTGATATTGC T54A | -0.338 ± 0.15 | 0.141 ± 0.18
TAAATTGATATTGC C37A | -0.531 ± 0.059 | -1.21 ± 0.23
TAAATTGATATTGC C37G | -0.123 ± 0.11 | -0.169 ± 0.072

Variant | relative integration efficiency (log2) [1] | relative integration efficiency (log2) [2]
TAAATTGATATTGC C37T | -0.229 ± 0.057 | -0.304 ± 0.57
TAAATTGATATTGC A47C | -0.409 ± 0.05 | -0.216 ± 0.54
TAAATTGATATTGC A47G | -0.0921 ± 0.17 | -0.453 ± 0.42
TAAATTGATATTGC A47T | -0.574 ± 0.2 | -0.552 ± 0.16
TAAATTGATATTGC A33C | 0.00253 ± 0.071 | 0.14 ± 0.18
TAAATTGATATTGC A33G | 0.137 ± 0.055 | -0.127 ± 0.057
TAAATTGATATTGC A33T | -0.264 ± 0.0049 | -0.243 ± 0.38
TAAATTGATATTGC C57A | -0.104 ± 0.063 | 0.461 ± 0.12
TAAATTGATATTGC C57G | -0.05 ± 0.075 | 1.552 ± 0.015
TAAATTGATATTGC C57T | -0.204 ± 0.0024 | 0.91 ± 0.032
TAAATTGATATTGC T28C | -0.278 ± 0.096 | -0.203 ± 0.2
TAAATTGATATTGC T28G | -0.476 ± 0.036 | 0.189 ± 0.11
TAAATTGATATTGC T28A | -0.215 ± 0.21 | 0.152 ± 0.12
TAAATTGATATTGC A13C | -0.236 ± 0.083 | -0.613 ± 0.75
TAAATTGATATTGC A13T | 0.116 ± 0.008 | 0.0619 ± 0.48
TAAATTGATATTGC A13G | 0.209 ± 0.06 | 0.173 ± 0.33
TAAATTGATATTGC T4C | -0.0535 ± 0.0038 | -0.0603 ± 0.29
TAAATTGATATTGC T4A | -0.153 ± 0.014 | -0.113 ± 0.32
TAAATTGATATTGC T4G | -0.1742 ± 0.00091 | 0.405 ± 0.34
TAAATTGATATTGC C60G | 0.0119 ± 0.012 | 0.315 ± 0.03
TAAATTGATATTGC C60A | -0.462 ± 0.027 | 1.55 ± 0.14
TAAATTGATATTGC C60T | -0.182 ± 0.028 | 0.2 ± 0.2
TAATATGATATTGC | -0.0671 ± 0.049 | 0.438 ± 0.31
TAAATTGATATTGC T44C | -0.0775 ± 0.082 | -0.274 ± 0.09

Variant | relative integration efficiency (log2) [1] | relative integration efficiency (log2) [2]
TAAATTGATATTGC T44G | -0.00517 ± 0.11 | -0.385 ± 0.26
TAAATTGATATTGC T44A | 0.0685 ± 0.021 | -0.0417 ± 0.00085
TAAATTGATATTGC A16T | -0.582 ± 0.072 | -0.311 ± 0.2
TAAATTGATATTGC A16C | -0.0617 ± 0.0049 | 0.0173 ± 0.062
TAAATTGATATTGC A16G | -0.119 ± 0.073 | -0.0536 ± 0.39
TAAATTGATATTGC T48C | -0.4021 ± 0.003 | -0.401 ± 0.25
TAAATTGATATTGC T48A | 0.196 ± 0.2 | 0.629 ± 0.21
TAAATTGATATTGC T48G | -0.12 ± 0.078 | -0.379 ± 0.13
TAAATTGATATTGC A35C | -0.0746 ± 0.015 | -0.0637 ± 0.3
TAAATTGATATTGC A35T | -0.27 ± 0.02 | -0.45 ± 0.076
TAAATTGATATTGC A35G | -0.559 ± 0.067 | -0.531 ± 0.13
TAAATTGATATTGC C77T | -0.00923 ± 0.0046 | -0.351 ± 0.044
TAAATTGATATTGC C77G | 0.0121 ± 0.017 | -0.217 ± 0.018
TAAATTGATATTGC C77A | -0.111 ± 0.093 | -0.0608 ± 0.27
TAAATTGATATTGC C18T | 0.131 ± 0.1 | -0.605 ± 0.2
TAAATTGATATTGC C18A | -0.147 ± 0.1 | -0.272 ± 0.024
TAAATTGATATTGC C18G | -0.199 ± 0.036 | -0.152 ± 0.14
TAAATTGATATTGC T5A | 0.0941 ± 0.11 | 0.163 ± 0.31
TAAATTGATATTGC T5G | -0.23 ± 0.018 | -0.319 ± 0.36
TAAATTGATATTGC T5C | -0.234 ± 0.068 | -0.488 ± 0.12
TAAATTGATATTGC T78C | -0.00404 ± 0.024 | -0.0349 ± 0.43
TAAATTGATATTGC T78A | -0.396 ± 0.15 | -0.018 ± 0.18
TAAATTGATATTGC T78G | 0.0385 ± 0.031 | 0.078 ± 0.44
TACATTGATATTGC | -0.674 ± 0.11 | 1.79 ± 0.13

Variant | relative integration efficiency (log2) [1] | relative integration efficiency (log2) [2]
TAAATTGATATTGC T40A | -0.0544 ± 0.14 | -0.355 ± 0.17
TAAATTGATATTGC T40C | -0.609 ± 0.017 | -0.859 ± 0.091
TAAATTGATATTGC T40G | -0.896 ± 0.09 | -1.24 ± 0.71
TAAATTGATATTGC T51G | -0.507 ± 0.097 | -0.118 ± 0.2
TAAATTGATATTGC T51C | 0.0252 ± 0.18 | 0.0609 ± 0.14
TAAATTGATATTGC T51A | -0.455 ± 0.07 | -0.206 ± 0.1
TAAATTGATATTGC C79A | -0.158 ± 0.087 | -0.334 ± 0.18
TAAATTGATATTGC C79G | -0.0645 ± 0.0099 | -0.196 ± 0.19
TAAATTGATATTGC C79T | 0.00455 ± 0.031 | -0.191 ± 0.27
TAAATTGATATTGC C36T | -0.172 ± 0.077 | -0.179 ± 0.053
TAAATTGATATTGC C36G | -0.469 ± 0.0075 | -0.695 ± 0.23
TAAATTGATATTGC C36A | 0.40973 ± 0.00019 | 0.478 ± 0.0049
TAAATTGATATTGC A29G | -0.169 ± 0.087 | -0.293 ± 0.074
TAAATTGATATTGC A29C | -0.793 ± 0.055 | -0.254 ± 0.12
TAAATTGATATTGC A29T | -0.372 ± 0.011 | 0.436 ± 0.063
TAAATTGATATTGC T12G | -0.147 ± 0.043 | -1.06 ± 0.57
TAAATTGATATTGC T12C | -0.235 ± 0.019 | -0.906 ± 0.64
TAAATTGATATTGC T12A | -0.107 ± 0.031 | -0.916 ± 0.17
TAAATTGATATTGC G7C | -0.529 ± 0.13 | -1.41 ± 0.63
TAAATTGATATTGC G7T | -2.2 ± 0.4 | -3.44 ± 0.49
TAAATTGATATTGC G7A | -0.0765 ± 0.034 | -0.974 ± 0.015
TAAATTGATATTTA | 0.1 ± 0.034 | 0.122 ± 0.099
TAAATTGATATTTC | -0.0163 ± 0.045 | -0.13 ± 0.15
TAAATTGATATTGC C2T | -0.0194 ± 0.017 | 0.0698 ± 0.22

Variant | relative integration efficiency (log2) [1] | relative integration efficiency (log2) [2]
TAAATTGATATTGC C2A | 0.0243 ± 0.04 | 0.336 ± 0.22
TAAATTGATATTGC C2G | 0.0801 ± 0.019 | 0.363 ± 0.28
TAAATTGATATTGG C77G | -0.0309 ± 0.041 | -0.0151 ± 0.56
GAAATTGATATTGC A62C | -0.604 ± 0.16 | 2.52 ± 0.065
TAAATTGATATTGC A43T | -0.127 ± 0.0053 | -0.303 ± 0.3
TAAATTGATATTGC A43C | -0.127 ± 0.027 | -0.0895 ± 0.24
TAAATTGATATTGC A43G | -0.0412 ± 0.15 | -0.246 ± 0.17
TAAATTGATATTGC C17T | 7.24e-05 ± 0.068 | -0.744 ± 0.39
TAAATTGATATTGC C17G | -0.0518 ± 0.013 | -0.402 ± 0.0041
TAAATTGATATTGC C17A | -0.124 ± 0.042 | -0.331 ± 0.098
TAAATTGATTAACC | -0.157 ± 0.13 | 1.35 ± 0.077
TAACTTGATATTGC | 0.11 ± 0.027 | 0.325 ± 0.16
TAAATTTCTATTGC | -0.55 ± 0.13 | 2.4 ± 0.28
TAAATTTCGCTTGC | -0.702 ± 0.069 | 2.429 ± 0.022
TAAATTGATATTGC A15C | 0.297 ± 0.19 | 0.449 ± 0.3
TAAATTGATATTGC A15T | -0.218 ± 0.022 | -0.624 ± 0.069
TAAATTGATATTGC A15G | -0.381 ± 0.0063 | -0.228 ± 0.029
TAAATTGATATTGC A11C | 0.342 ± 0.021 | -0.681 ± 0.56
TAAATTGATATTGC A11G | -0.0551 ± 0.029 | -0.5 ± 0.17
TAAATTGATATTGC A11T | 0.176 ± 0.055 | -0.678 ± 0.051
